94 variants from the supplement of paper PMC10567573 can be followed below.

To fix the notation:
B1: TTC32 (parent)
chain: YSAYIRRCACAASSDESPGSKCSP
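Note: lentivirally expressed fusions sorted by FACS into six bins by GFP to DsRed ratio, PSI derived from sequencing read proportions per bin multiplied by bin number.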

The variants in the data set derive from B1. Put plainly: protein stability index of a GFP-peptide fusion (GPS, HEK-293T) (PSI 1-6); higher = more stable. The following applies: c terminus: a fixed tail appended.
For YSAYIRRCATAASSDESPGSKCSP [C10T], the protein stability index stood at 2.73.

With YSAYIRRCAFAASSDESPGSKCSP [C10F], the protein stability index amounted to 2.14. In the case of YSAYIRRCALAASSDESPGSKCSP [C10L], the protein stability index amounted to 2.28. With YSAYIRRCAWAASSDESPGSKCSP [C10W], the protein stability index was found to be 1.44.

Turning to YSAYIRRCAQAASSDESPGSKCSP [C10Q], the protein stability index is 2.69. The same measure for YSAYIRRCAPAASSDESPGSKCSP [C10P]: 2.88; for YSAYIRRCACAASSDESPGSYCSP [K21Y]: 2.8; for YSAYIRRCACAASSDESPGSICSP [K21I]: 1.86. The same measure for YSAYIRRCACAASSDESPGSCCSP [K21C]: 2.37. The same measure for YSAYIRRCACAASSDESPYSKCSP [G19Y]: 2.35; for YSAYIRRCACAASSDESPLSKCSP [G19L]: 1.31. For YSAYIRRCACAASSDESPESKCSP [G19E], the protein stability index is 2.31. The same measure for YSAYIRRCACAASSDESPGEKCSP [S20E]: 2.15; for YSAYIRRCACAASSDESPGDKCSP [S20D]: 2.7; for YSAYIRRCACAASSDESPGWKCSP [S20W]: 1.85. For the variant YSAYIRRCACAASSDESPGKKCSP [S20K], the protein stability index was 2.23.

With YSAYIRRCACAASSDESPGHKCSP [S20H], the protein stability index turned out to be 2.8. The same measure for YSAYIRRCACAASSDESPGYKCSP [S20Y]: 1.61; for YSAYIRRCACAASSDESPGCKCSP [S20C]: 3.96; for YSAYIRRCACAASSDESPGSKCSQ [P24Q]: 2.04. The same measure for YSAYIRRCACAASSDESPGSKCSS [P24S]: 1.95. The value for YSAYIRRCACAAGSDESPGSKCSP [S13G] was 2.57; that for YSAYIRRCACAAVSDESPGSKCSP [S13V] was 1.49. For the variant YSAYIRRCACAAFSDESPGSKCSP [S13F], the protein stability index worked out at 2.08. The value for YSAYIRRCACAACSDESPGSKCSP [S13C] was 2.96; that for YSAYIRRCACAAHSDESPGSKCSP [S13H] was 2.1; that for YSAYIRRCACAAWSDESPGSKCSP [S13W] was 1.98.

Take YSAYIRRCACAASSDESPGSKCCP [S23C]: the protein stability index stood at 2.26. Consider YSAYIRRCACAASSDESPGSKCKP [S23K], for which the protein stability index was 2.06. With YSAYIRRCACAASSDESPGSKCNP [S23N], the protein stability index stood at 2.17. The same measure for YSAYIRRCACAASSDESPGSKCTP [S23T]: 2.09. On to YSAYIRRCACAASSDESPGSKCRP [S23R], for which the protein stability index was found to be 2.44.

As to YSAYIRRCACAASSDASPGSKCSP [E16A], the protein stability index turned out to be 1.44. The same measure for YSAYIRRCACAASSDVSPGSKCSP [E16V]: 1.81; for YSAYIRRCACAASSSESPGSKCSP [D15S]: 2.41. On to YSAYIRRCACAASSEESPGSKCSP [D15E], for which the protein stability index is 2.35.

As for YSAYIRRCACAASSAESPGSKCSP [D15A], the protein stability index stood at 3.53. Consider YSAYIRRCACAASSKESPGSKCSP [D15K], for which the protein stability index stood at 1.81. The same measure for YSAYIRRCACAASSGESPGSKCSP [D15G]: 1.72; for YSAYIRRCACVASSDESPGSKCSP [A11V]: 2.61; for YSAYIRRCACNASSDESPGSKCSP [A11N]: 2.35. The value for YSAYIRRCACAASSDESGGSKCSP [P18G] was 2.43; that for YSAYIRRCACAASSDESYGSKCSP [P18Y] was 1.6. The same measure for YSAYIRRCACAASSDESRGSKCSP [P18R]: 2.06; for YSAYIRRCACAASSDESIGSKCSP [P18I]: 1.95. On to YSAYIRRCACAASSDESLGSKCSP [P18L], for which the protein stability index was 2.22. The value for YSAYIRRCACAASSDESHGSKCSP [P18H] was 2.21.

For the variant YSAYIRRCACAASSDESFGSKCSP [P18F], the protein stability index was determined as 2.68.

With YSAYIRRCACAASSDESCGSKCSP [P18C], the protein stability index amounted to 2.28.

Take YSAYIRRCACAASSDESSGSKCSP [P18S]: the protein stability index is 2.37. The value for YSAYIRSCACAASSDESPGSKCSP [R7S] was 2.42. In the case of YSAYIRHCACAASSDESPGSKCSP [R7H], the protein stability index amounted to 1.9. The same measure for YSAYIRYCACAASSDESPGSKCSP [R7Y]: 2.06; for YSAYIRRCACAPSSDESPGSKCSP [A12P]: 2.26.

In the case of YSAYIRRCACACSSDESPGSKCSP [A12C], the protein stability index was 1.94. Turning to YSAYIRRCACAGSSDESPGSKCSP [A12G], the protein stability index is 2.46. Turning to YSAYIRRCACAKSSDESPGSKCSP [A12K], the protein stability index was 1.81. The same measure for YSAYIRRCACADSSDESPGSKCSP [A12D]: 2.49; for YSAYIRRCACAWSSDESPGSKCSP [A12W]: 2.08; for YSAYIRRCACASSSDESPGSKCSP [A12S]: 2.48.

In the case of YSAYIRRCACAASFDESPGSKCSP [S14F], the protein stability index is 1.45. The value for YSAYIRRCACAASCDESPGSKCSP [S14C] was 2.18; that for YSAYIRRCACAASIDESPGSKCSP [S14I] was 1.96. The value for YSAYIRRCACAASNDESPGSKCSP [S14N] was 2.65; that for YSAYIRRCACAASSDESPGSKWSP [C22W] was 2.41; that for YSAYIRRCACAASSDESPGSKYSP [C22Y] was 1.65. The same measure for YSAYIRRCACAASSDESPGSKISP [C22I]: 1.85; for YSAYIRRCACAASSDESPGSKPSP [C22P]: 2.02. In the case of YSAYIRRCACAASSDESPGSKTSP [C22T], the protein stability index came to 2.57. The same measure for YSAVIRRCACAASSDESPGSKCSP [Y4V]: 3.07. The same measure for YDAYIRRCACAASSDESPGSKCSP [S2D]: 2.6; for YMAYIRRCACAASSDESPGSKCSP [S2M]: 1.91; for YTAYIRRCACAASSDESPGSKCSP [S2T]: 2.1. The same measure for YVAYIRRCACAASSDESPGSKCSP [S2V]: 2.52; for YQAYIRRCACAASSDESPGSKCSP [S2Q]: 2.02; for YCAYIRRCACAASSDESPGSKCSP [S2C]: 2.06. Regarding YSAYRRRCACAASSDESPGSKCSP [I5R], the protein stability index worked out at 2.27. The value for YSAYLRRCACAASSDESPGSKCSP [I5L] was 2.12; that for YSAYIRRAACAASSDESPGSKCSP [C8A] was 3.5; that for YSAYIRRSACAASSDESPGSKCSP [C8S] was 3.03. The value for DSAYIRRCACAASSDESPGSKCSP [Y1D] was 3.44; that for TSAYIRRCACAASSDESPGSKCSP [Y1T] was 2.52. The same measure for MSAYIRRCACAASSDESPGSKCSP [Y1M]: 2.45; for FSAYIRRCACAASSDESPGSKCSP [Y1F]: 2.27. For YSSYIRRCACAASSDESPGSKCSP [A3S], the protein stability index stood at 2.43. The same measure for YSWYIRRCACAASSDESPGSKCSP [A3W]: 2.19.

Consider YSAYIRRCTCAASSDESPGSKCSP [A9T], for which the protein stability index was 2.14. The value for YSAYIRRCICAASSDESPGSKCSP [A9I] was 2.38. The same measure for YSAYIRRCPCAASSDESPGSKCSP [A9P]: 2.16; for YSAYIRRCHCAASSDESPGSKCSP [A9H]: 1.92. The same measure for YSAYIRRCDCAASSDESPGSKCSP [A9D]: 2.58; for YSAYIRRCACAASSDEYPGSKCSP [S17Y]: 1.68.

With YSAYITRCACAASSDESPGSKCSP [R6T], the protein stability index stood at 2.08. Take YSAYIWRCACAASSDESPGSKCSP [R6W]: the protein stability index came out at 3.52.
